Laboratory results published in the supplement of paper PMC11908140.

B1: library; numbered along this chain (parent)
chain: MRKPRAAVGSGHRKQAASQEGRQKHAKNNSQAKPSACDGLARQPEEVVLQASVSSYHLFRDVAEVTAFRGSLLSWYDQEKRDLPWRRRAEDEMDLDRRAYAVWVSEVMLQQTQVATVINYYTGWMQKWPTLQDLASASLEEVNQLWAGLGYYSRGRRLQEGARKVVEELGGHMPRTAETLQQLLPGVGRYTAGAIASIAFGQATGVVDGNVARVLCRVRAIGADPSSTLVSQQLWGLAQQLVDPARPGDFNQAAMELGATVCTPQRPLCSQCPVESLCRARQRVEQEQLLASGSLSGSPDVEECAPNTGQCHLCLPPSEPWDQTLGVVNFPRKASRKPPREESSATCVLEQPGALGAQILLVQRPNSGLLAGLWEFPSVTWEPSEQLQRKALLQELQRWAGPLPATHLRHLGEVVHTFSHIKLTYQVYGLALEGQTPVTTVPPGARWLTQEEFHTAAVSTAMKKVFRVYQGQQPGTCMGSKRSQVSSPCSRKKPRMGQQVLDNFFRSHISTDAHSLNSAAQ

Variants of: B1
Test: 8OG:A repair function score (normalized; synonymous = 0, nonsense = -1) (normalized log-likelihood score); higher = more repair activity (WT-like)
Details: with 8OG:A DNA repair reporter (GFP) in HEK-293 MUTYH KO cells
How it was run: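 Per-tile Rosace fitness scores were converted to a normalized repair function score anchored on synonymous and nonsense distributions. That scale puts synonymous medians at 0 and nonsense medians at -1. Variants with starting counts under 300 counts per million were discarded. Input came from sorting viable mCherry+ MUTYH knockout HEK-293 cells, carrying lentiviral MUTYH cDNA NNN codon-scan libraries in 10 pg/ml doxycycline and an 8OG:A GFP repair reporter, into GFP+ and GFP− bins at 72 h, three replicates per tile, followed by tile amplicon sequencing.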
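Note: cells sorted at 72 h after reporter transfection.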

8OG:A repair function score of substitutions, site by site:
L313: F -0.0503 | R -0.425 | V -0.213 | S -0.292 | I -0.156 | K -0.581 | T -0.317 | H -0.299 | A -0.4 | P -0.504 | D -0.363 | W -0.257 | Y -0.104 | M 0.00327 | C -0.146 | E -0.601 | Q -0.328 | N -0.337 | G -0.386
S318: A 0.0892 | C -0.0155
C314: D -0.532 | S -0.593 | R -0.482 | I -0.652 | M -0.46 | E -0.317 | A -0.468 | G -0.468 | N -0.553 | Y -0.572 | V -0.631 | L -0.616 | W -0.679 | F -0.764 | T -0.575 | K -0.485
G309: L -0.0772 | S -0.0582 | H 0.0104 | V -0.0173 | Q -0.105 | M -0.0498 | T -0.00848 | W -0.149 | F 0.0213 | Y -0.0852 | I -0.145 | R -0.0133 | E 0.02 | P -0.0923 | K -0.0254 | N -0.0326
L315: D -0.206 | S -0.102 | T -0.0895 | I -0.0865 | E -0.305 | V -0.0921 | A -0.104 | H -0.308 | N -0.209 | R -0.0162 | Q -0.193 | G -0.123 | P -0.0779 | K -0.116 | Y 0.0406 | F -0.147 | W -0.187 | C -0.0705 | M 0.0419
P317: H -0.0747 | R 0.0296 | C -0.0347 | S 0.0611 | A -0.0112 | I -0.0482 | K -0.197 | M 0.112 | D -0.029 | F -0.125 | E -0.0108 | W -0.205 | Y -0.0115 | L -0.0676 | N 0.0467 | G -0.0274 | Q -0.121 | V 0.0214 | T -0.0225
C311: F -0.55 | S -0.588 | Q -0.575 | K -0.39 | V -0.634 | I -0.59 | H -0.471 | D -0.559 | M -0.621 | G -0.505 | W -0.459 | N -0.628 | L -0.479 | R -0.481 | T -0.566 | E -0.757 | Y -0.394 | A -0.544 | P -0.312
H312: F -0.000263 | P -0.0124 | L 0.0443 | T -0.112 | V 0.078 | W -0.103 | N -0.0171 | E 0.0205 | S -0.0172 | C -0.0404 | G -0.0894 | A -0.0906 | Q -0.0663 | M -0.0518 | I 0.0886 | D -0.0268 | K 0.0995 | Y -0.0454 | R -0.0802
Q310: A -0.00829 | W -0.0199 | G -0.0488 | K -0.0227 | N 0.00143 | R -0.0435 | L -0.0215 | H -0.0309 | P -0.0353 | V -0.0252 | T 0.0177 | E -0.0263 | S -0.0462 | Y -0.0597 | I 0.0174 | F -0.0295 | C 0.0147 | D 0.0119 | M -0.0144
P316: T -0.057 | F -0.198 | C -0.0546 | D -0.0567 | Q 0.0822 | R -0.109 | E 0.0013 | I -0.253 | Y -0.161 | L -0.126 | A -0.176 | N -0.154 | S -0.123 | G 0.00918 | W -0.331 | H -0.123 | V -0.121 | K -0.0182 | M -0.238
